Results as given in the supplement of paper PMC9170038.

System: MS2 coat protein
Test: apparent KD of MS2 coat protein; designed switch direction (-1 OFF switch, 1 ON switch): -1; higher = weaker reporter binding
Summary of the method: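 The reported apparent KD is a per-design median over clusters, from curve fits of normalised cluster fluorescence. Protein titrations used SNAP-549-labelled MS2 coat protein, doubled from 0.7 or 1.5 nM to 3 µM, in Tris-HCl pH 7.5 buffer with KCl, MgCl2, BSA, DTT, tRNA and Tween-20, with no input, 200 uM small-molecule ligand, or an oligonucleotide input. The RNA switches were transcribed on Illumina chips by stalled E. coli RNA polymerase.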

[1] = input ligand: microRNA oligo, concentration not stated
[2] = Eterna round: R95, input ligand: FMN 200 uM
[3] = Eterna round: R95, input ligand: microRNA oligo, concentration not stated
[4] = Eterna round: R95, input ligand: none

UAAGAUUACCGAGGAUAUGGUAAUUUUUAUUAACCAGAAGGCGGACUCAACAUGAGGAUCACCCAUGUAUAAAGGGUAUUAGUU [JR_ExcNG1_Sub039] (Eterna round: R96, puzzle: Exclusion NG 1)
apparent KD of MS2 coat protein (input ligand: FMN 200 uM): 87.5 nM | apparent KD of MS2 coat protein [1]: 70.7 nM | apparent KD of MS2 coat protein (input ligand: none): 98.7 nM

ACUAGUCAUGAGGAUAUGCGAGCCAACGGGCGAGCAGAAGGCGUGACAUGAGGAUCACCCAUGUCAGUUCGCGA [eternacac ex6r4 sub31] (Eterna round: R97, puzzle: Exclusion 6)
apparent KD of MS2 coat protein (input ligand: FMN 200 uM): 21.9 nM | apparent KD of MS2 coat protein (input ligand: none): 17.4 nM

UCCUGCUGGCGAGGAUAUCCUGUGCGGUUCCGGCUCGUGUCUGUUACAUGAGGAUCACCCAUGUGGGAGAAGGUGUCUGUGGCC [Design 98] (Eterna round: R96, puzzle: Exclusion NG 2)
apparent KD of MS2 coat protein (input ligand: FMN 200 uM): 18.6 nM | apparent KD of MS2 coat protein [1]: 14.1 nM | apparent KD of MS2 coat protein (input ligand: none): 20.5 nM

AGGUGUAGAGGAUAUCUCUUCUCUCACAUGAGGAUCACCCAUGUCCUAAAGUCCAAGGAGAGAGAAGGCUACACCA [Omei Ex5 D4] (Eterna round: R97, puzzle: Exclusion 5)
apparent KD of MS2 coat protein (input ligand: FMN 200 uM): 107 nM | apparent KD of MS2 coat protein (input ligand: none): 110 nM

AACAAGCUUUUUUGAUGAAUGAUAGUAGGUAGCUCCUUUACAUGAGGAUCACCCAUGUUUGUGUAGCUCGAUCUUUU [JR_SV3TOV2_Sub077] (puzzle: Sensor v3, turn-off variant 2)
apparent KD of MS2 coat protein [2]: 12.7 nM | apparent KD of MS2 coat protein [3]: 16.2 nM | apparent KD of MS2 coat protein [4]: 12.1 nM

GAAAAGGCAGGAUAUGCAAUGUUUGUCCCAUCUCUCCUAAGACAUGAGGAUCACCCAUGUAGAAGGGCCAGGAA [Eternabot (L2) Solution 62] (Eterna round: R97, puzzle: Exclusion 2)
apparent KD of MS2 coat protein (input ligand: FMN 200 uM): 33.7 nM | apparent KD of MS2 coat protein (input ligand: none): 26.5 nM

CAGUACUGAGGAUAUACAUGAGGAUCACCCAUGUGUUCCAGCUAGGAAACUAGCAAAAUUAGAAGGCAGUACUG [salish99_ex3_r3_087] (puzzle: Exclusion 3)
apparent KD of MS2 coat protein [3]: 11.3 nM

UGGGUACUCCAUAGAAGAGACAUGAGGAUCACCCAUGUAGGGCAAGCUUUUUGCUCGUCUUAGGUUGAGGGAUAGGA [JR_SV3TOV1_Sub015] (puzzle: Sensor v3, turn-off variant 1)
apparent KD of MS2 coat protein [2]: 166 nM | apparent KD of MS2 coat protein [3]: 80.7 nM | apparent KD of MS2 coat protein [4]: 280 nM

AAACCUAUAGGAUAUACAUGAGGAUCACCCAUGUUGCGAUUUUUUAGGUAACAGAUCCGUAGAAGGGUAGGUCA [Reinesce] (puzzle: Exclusion 3)
apparent KD of MS2 coat protein [3]: 38.1 nM

UAUUAACAAGCUUGAUCCCACAUGAGGAUCACCCAUGUGCUCGUCUUAUAAGGUACUGUGACGAAAGUCACGGUACC [Sensor 3, v1 - 86] (puzzle: Sensor v3, turn-off variant 1)
apparent KD of MS2 coat protein [2]: 89.9 nM | apparent KD of MS2 coat protein [3]: 206 nM | apparent KD of MS2 coat protein [4]: 91.2 nM

GAAUAGUGAGGAUAUGCAAUGAAGGUAGUACGAUAUGUCUGACAUGAGGAUCACCCAUGUAGAAGGCACAGAUC [EX2 #12] (Eterna round: R97, puzzle: Exclusion 2)
apparent KD of MS2 coat protein (input ligand: FMN 200 uM): 16.1 nM | apparent KD of MS2 coat protein (input ligand: none): 22 nM

CGAGUACAUGAGGAUCACCCAUGUUAGGAUAUUGGUAUCAAAAGAGUCCGAUCUGAUCCAAGAAGGAGCAUGCC [Eternabot (L2) Solution 78] (Eterna round: R97, puzzle: Exclusion 1)
apparent KD of MS2 coat protein (input ligand: FMN 200 uM): 32.5 nM | apparent KD of MS2 coat protein (input ligand: none): 27.1 nM

UGAGUGCUGCGAGGAUAUACAUGAGGAUCACCCAUGUAAUCGUGUGAGGCUUUGCCUCACACGAUGUAGAAGGCGCAGUACUCU [JL ENG2 1.09] (Eterna round: R96, puzzle: Exclusion NG 2)
apparent KD of MS2 coat protein (input ligand: FMN 200 uM): 9.84 nM | apparent KD of MS2 coat protein [1]: 8.97 nM | apparent KD of MS2 coat protein (input ligand: none): 11.9 nM

GAUCUGACAGGAUAUACAUGAGGAUCACCCAUGUGCGAGCUAGCGAAAGCUAGCUCAGGUAGAAGGGUCAGAUC [Ex3 dot plot directed] (Eterna round: R96, puzzle: Exclusion 3)
apparent KD of MS2 coat protein (input ligand: FMN 200 uM): 15.1 nM | apparent KD of MS2 coat protein [1]: 13.1 nM | apparent KD of MS2 coat protein (input ligand: none): 15.7 nM

GGCAUAAACGAGGAUAUCGUUACGGAAACGUAACGAGAAGGUGUAACAUGAGGAUCACCCAUGUUCCUCAAGCC [Mat - Exclusion 6 - Eli Mod - D59] (puzzle: Exclusion 6)
apparent KD of MS2 coat protein [3]: 28.9 nM

GGUACUAACACGAAAGUGUUAGUACAAUAAGCUUGUGUUACAUGAGGAUCACCCAUGUCCUCAUAAGCUCGUCUUAU [Mat - Sensor v3 - Turn-off var 2 - D52] (puzzle: Sensor v3, turn-off variant 2)
apparent KD of MS2 coat protein [2]: 112 nM | apparent KD of MS2 coat protein [3]: 38.8 nM | apparent KD of MS2 coat protein [4]: 126 nM

ACCUCACAUGAGGAUCACCCAUGUCAGGAUAUUCAAACAGGCGGAACUCCGCCUUCUCGAAGAAGGGACAUUAA [Ontebileza] (Eterna round: R96, puzzle: Exclusion 1)
apparent KD of MS2 coat protein (input ligand: FMN 200 uM): 62.1 nM | apparent KD of MS2 coat protein [1]: 15.9 nM | apparent KD of MS2 coat protein (input ligand: none): 16.4 nM

CUAGCGAUUGUAGGAUAUCGGACUGUUUCAGUCUGAGAAGGACAUGAGGAUCACCCAUGUGAACCAACGUGAGUUGGACGCUAG [JL ENG1 3.82] (Eterna round: R96, puzzle: Exclusion NG 1)
apparent KD of MS2 coat protein (input ligand: FMN 200 uM): 51.1 nM | apparent KD of MS2 coat protein [1]: 12.5 nM | apparent KD of MS2 coat protein (input ligand: none): 19.4 nM

GGUUGGCGAGGAUAUACAUGAGGAUCACCCAUGUGAGAGAAAAAAGUGAGGAAGAAAAGUAGAAGGCGCUGACG [salish99-ex3-champ] (puzzle: Exclusion 3)
apparent KD of MS2 coat protein [2]: 412 nM | apparent KD of MS2 coat protein [3]: 49.3 nM | apparent KD of MS2 coat protein [4]: 44.5 nM

AAAAGAAAGGGAGGAUAUCUGACGGGAUACCAAAGAGAAGGCCCAGGCACAUGAGGAUCACCCAUGUUCGUGCGCCUACUUAAC [Enveri] (Eterna round: R96, puzzle: Exclusion NG 1)
apparent KD of MS2 coat protein (input ligand: FMN 200 uM): 28.3 nM | apparent KD of MS2 coat protein [1]: 9.73 nM | apparent KD of MS2 coat protein (input ligand: none): 14.4 nM

GGUUGGCGAGGAUAUACAUGAGGAUCACCCAUGUGAGAGGAAAAAGUGAGAACGAAAAGUAGAAGGCGCUGACG [salish99_ex3_r3_062] (puzzle: Exclusion 3)
apparent KD of MS2 coat protein [2]: 119 nM | apparent KD of MS2 coat protein [3]: 78.9 nM | apparent KD of MS2 coat protein [4]: 225 nM

GGCAUGUGAGGAUAUGCGAAGGGAAGGAGAGGGAAAGAGAAGCAGAAGGCACAUGAGGAUCACCCAUGUAAGGG [AK-MS2ROC-r4-exclusion4-8] (Eterna round: R97, puzzle: Exclusion 4)
apparent KD of MS2 coat protein (input ligand: FMN 200 uM): 34.1 nM | apparent KD of MS2 coat protein (input ligand: none): 203 nM

GCGCGAAGCUAGGAUAUGGGAGCGUCUUCGCUCCCAGAAGGAGCCACAUGAGGAUCACCCAUGUGGUGAUCCUG [eternacac ex6r4 sub14] (Eterna round: R97, puzzle: Exclusion 6)
apparent KD of MS2 coat protein (input ligand: FMN 200 uM): 17 nM | apparent KD of MS2 coat protein (input ligand: none): 16.5 nM

UAAAUGUGAGGAUAUCAGGUGUGCUAGCGAACUGGUACAUCUGAGAAGGCACAUGAGGAUCACCCAUGUUCCUU [Mat - Exclusion 4 - Mod of JL - D50] (puzzle: Exclusion 4)
apparent KD of MS2 coat protein [3]: 16.2 nM

CAAAAGGAAGGAUAUGCAUCGGGAGGUGCUCAGCAUCAAAUACAUGAGGAUCACCCAUGUAGAAGGUCUGAAAA [Edbile] (puzzle: Exclusion 2)
apparent KD of MS2 coat protein [3]: 31.5 nM

AAUUAAUGUGUGAGGAUAUUGAUGGAAUGACUUAUUAAGAAGGCACAUGAGGAUCACCCAUGUGGGAAGUCACG [JR_BMEx4_Sub015] (Eterna round: R97, puzzle: Brourd's mod of Exclusion 4)
apparent KD of MS2 coat protein (input ligand: FMN 200 uM): 27.6 nM | apparent KD of MS2 coat protein (input ligand: none): 18.6 nM

CAUACUAAAGUCAGGAUAUGCGGCCGAAUACGGGUGUAGAAGGGACAUGAGGAUCACCCAUGUAGAUAGUAAAG [EX-4 Malc #17] (puzzle: Brourd's mod of Exclusion 4)
apparent KD of MS2 coat protein [2]: 29.1 nM | apparent KD of MS2 coat protein [3]: 23.1 nM | apparent KD of MS2 coat protein [4]: 22.2 nM

GGAGGAAAGAUAGGAUAUUCGAGGAAGGUGGUGAUAGAGACAUGAGGAUCACCCAUGUAAGGAGGGAAGAAGGGUCGAGGAGGA [AK ExNG2-V2-7] (Eterna round: R96, puzzle: Exclusion NG 2)
apparent KD of MS2 coat protein (input ligand: FMN 200 uM): 411 nM | apparent KD of MS2 coat protein [1]: 193 nM | apparent KD of MS2 coat protein (input ligand: none): 142 nM

GAUUAUGCGAGCUUUAGGGACAUGAGGAUCACCCAUGUUCGUCUUAUUAAUCUAGGUACACUAACAUACCUAAAUCU [JMF 10] (puzzle: Sensor v3, turn-off variant 1)
apparent KD of MS2 coat protein [2]: 23.9 nM | apparent KD of MS2 coat protein [3]: 37.6 nM | apparent KD of MS2 coat protein [4]: 21.4 nM

AGGAUGUUAGGAUAUCGGAGAUGCGGGAGGAGGUGGAGGUACGAGAAGGAACAUGAGGAUCACCCAUGUGGAAG [JR_Exclu4_Sub045] (puzzle: Exclusion 4)
apparent KD of MS2 coat protein [3]: 18.4 nM

ACAUGAGGAUCACCCAUGUCUGGCUGGUCCGUCUCGGCUGUCGAGGAUAUGGCUCGGUGUCCGCGCUAGAAGGCGGGAGCUGGC [Aenatbe mod 80] (Eterna round: R96, puzzle: Exclusion NG 3)
apparent KD of MS2 coat protein (input ligand: FMN 200 uM): 75.2 nM | apparent KD of MS2 coat protein [1]: 46.2 nM | apparent KD of MS2 coat protein (input ligand: none): 89.3 nM

AAAAGUGAAGAGGAUAUCUGCGCCGAACGGUAAAGAGAAGGCUUCACAUGAGGAUCACCCAUGUGGGCCACAGA [EX6 C.5] (Eterna round: R97, puzzle: Exclusion 6)
apparent KD of MS2 coat protein (input ligand: FMN 200 uM): 79.3 nM | apparent KD of MS2 coat protein (input ligand: none): 19.8 nM

CCUCCACAUGAGGAUCACCCAUGUCAGGAUAUAGGAUUGCUAUCAUGAGAGGAUGGCGUUAGAAGGGACAUCAC [Eternabot (L1) Solution 69] (Eterna round: R97, puzzle: Exclusion 1)
apparent KD of MS2 coat protein (input ligand: FMN 200 uM): 44.5 nM | apparent KD of MS2 coat protein (input ligand: none): 40 nM

GGACCUCCUGAGGAUAUUGUAUCACCUGACUGAUAAGAAGGCAGAACAUGAGGAUCACCCAUGUGGGUACUCGG [Bingo-Bango-15] (Eterna round: R97, puzzle: Exclusion 6)
apparent KD of MS2 coat protein (input ligand: FMN 200 uM): 147 nM | apparent KD of MS2 coat protein (input ligand: none): 190 nM
